# Measured values as given in patent publication US20230279055A1 (University of Washington, published 2023).
# Experiments:
# [1] = target: the molecule itself; test: SEC-MALS, oligomeric state of the dominant species (M = monomer, D = dimer)
# Protocol: FIG. 12. Biochemical characterization of the dIG8 design. a, Far-ultraviolet circular dichroism spectra (25° C., 95° C.). b, Thermal denaturation monitored at 220 nm by circular dichroism. The design denatures at temperatures above 95° C. c, SEC-MALS analysis. The protein is monodispersed and has an estimated molecular weight of 16.6 kDa, which lies between that corresponding to the theoretical monomer (10.3 kDa) and dimer (20.6 kDa). The protein includes the thrombin cleavage site and the hexa-histidine purification tag, which adds 2.3 kDa to the design. d, Chemical denaturation with guanidine hydrochloride monitored at 220 nm by circular dichroism. […] All experiments were carried out with PBS buffer.
# (§1) FIG. 14. […] Samples were prepared in 20 mM Tris·HCl, 150 mM sodium chloride, pH 7.5.
# (§2) To ascertain the oligomerisation state of dIG proteins, SEC-MALS was performed in a Dawn Helios™ II apparatus (Wyatt Technologies) coupled to a SEC Superdex™ 75 Increase 10/300 column. The column was equilibrated with PBS or buffer B at 25° C. and operated at a flow rate of 0.5 mL/min. A total volume of 100-165 μL of protein solution at 1-3.0 mg/mL was employed for each sample. Data processing and analysis proceeded with Astra 7 software (Wyatt Technologies), for which a typical dn/dc value for proteins (0.185 mL/g) was assumed.
# [2] = target: the molecule itself; test: SEC-MALS, oligomeric state of the dominant species (D = dimer)
# Protocol: as §1, §2
# [3] = target: the molecule itself; test: SEC-MALS, self-association, PBS buffer
# Protocol: FIG. 13. […] All experiments were carried out with PBS buffer.
# as §2
# [4] = target: the molecule itself; test: SEC-MALS, self-association
Protein,binding result [2],other results
"dIG8 (other, De novo designed immunoglobulin-like domain; also called parental dIG8; not shown: N-terminal hexa-histidine tag and thrombin cleavage site from pET-28b+ (adds 2.3 kDa)) RIEVRVDNGRVRVRNGTDRPVRVRVTAGGETREYTVNPGTELEVELSPEQQNNAEVEVEVGNEKYRFQLG",–,binding result [1]: binds
"dIG7 (other, De novo designed immunoglobulin-like domain; not shown: N-terminal thrombin-cleavable His6-tag encoded by pET-28b+) RMEVRVSNGRVEIENKSSQPGRVEVRFNGKRYEYTANPGERVEVEVSPEELKNLRVRLEYDGKTEETQYS",binds,–
"dIG15 (other, De novo designed immunoglobulin-like domain; not shown: N-terminal thrombin-cleavable His6-tag encoded by pET-28b+) RPKVQLELHGNKMRVRLRNDSSTPVEVHIKVGDEKRTVTVNPGEEVEVTFSTTDPRELKNATIQLHQGDQTVEYRVD",binds,–
"dIG22 (other, De novo designed immunoglobulin-like domain; not shown: N-terminal thrombin-cleavable His6-tag encoded by pET-28b+) SIEVRVKGDRYEFRNNSDKPATLEVEKNGKREEYHMNPGESVEVRGPPGQDIRFEMTMDGTTYRYRLS",binds,–
"dIG23 (other, De novo designed immunoglobulin-like domain; not shown: N-terminal thrombin-cleavable His6-tag encoded by pET-28b+) DLEVRRKDGKFEFRNNSDKPATLEVEKDGQREEYRMNPGETIEVQAPPGQDVRFTVEMPGREYRYKLD",binds,–
"dIG14 (other, De novo designed immunoglobulin-like domain; Built here as the crystallization construct (pET28*-dIG14); it may instead be the pET-28b+ form with an N-terminal thrombin-cleavable His6-tag; also called designed ImmunoGlobulin 14) MGRVEVRVEFEGDKMRVRLRNDSSTPVEVHIKVGDEKRTVTVNPGEEVEVTFSANDPHKFNRPQFTIEWGGQRQHFQHHHHHH",binds,–
"dIG8-CC (other, C21 and C60 found both disulfide-linked and unbound in the crystals, De novo designed immunoglobulin-like domain, double mutant of dIG8; Built as the untagged crystallization construct; also called dIG8-CC (V21C, V60C)) GHMRIEVRVDNGRVRVRNGTDRPCRVRVTAGGETREYTVNPGTELEVELSPEQQNNAEVEVECGNEKYRFQLG",–,binding result [1]: binds
"dIG21 (other, De novo designed immunoglobulin-like domain; not shown: N-terminal thrombin-cleavable His6-tag encoded by pET-28b+) SIEVRVKGDRYEFRNNSDKPATLEVEKNGKREEYHMNPGESVEVRGEPGQDIRFEMVMEGTTYRYRLS",–,binding result [3]: no binding
"dIG14-scdim (other, Two 6-stranded dIG14 domains (X1-X13) fused by a diglycine linker; also called single-chain dimer; dIG14-scdim designed with a GG linker) GRVEVRVEFEGDKMRVRLRNDSSTPVEVHIKVGDEKRTVTVNPGEEVEVTFSANDPHKFNRPQFTIEWGGGGRVEVRVEFEGDKMRVRLRNDSSTPVEVHIKVGDEKRTVTVNPGEEVEVTFSANDPHKFNRPQFTIEWG",–,binding result [4]: no binding
